The target of this assay is Streptococcus pyogenes Cas9 (SpCas9) protein, wild type (Streptococcus pyogenes) (UniProt Q99ZW2).

The substance “M13 phage major coat protein G8P periplasmic domain peptide (M13 G8PPD)” displayed an inhibition of the in vitro DNA cleavage activity of 50 nM SpCas9, peptide added before sgRNA (IC50) of 5 µM.

The values above are taken from paper PMC7045643, “Allosteric inhibition of CRISPR-Cas9 by bacteriophage-derived peptides” (Genome Biology, 2020).
